Data on one molecule can be found in PMC9307851.

This series concerns the target DNMT3B MTase domain WT (human, UniProt Q9UBC3 569-853). Kind of series: ITC; 5 C; ITC: 20 mM Tris-HCl pH 7.2, 200 mM NaCl, 5% glycerol, 2 mM b-mercaptoethanol, 5 C; EMSA: 50 mM Tris-HCl pH 8.0, 25% glycerol, 8% glucose, 2 mM DTT, 0.1 mg/mL BSA, 30 min, gel in 0.5x TBE at 4 C. The settings on record: protein: recombinant; tags: His6-MBP removed by TEV; (only upper strand given).

B1: 24-mer DNA duplex (GAC)8 (dsDNA)
DNA 1: GACGACGACGACGACGACGACGAC
DNA 2: GTCGTCGTCGTCGTCGTCGTCGTC
On to B1, for which the dissociation constant (Kd) came out at 4 ± 0.1 µM.
